Measurements: publication PMC1977871

Target: 160 kd cell surface receptor (human (endogenous in MDA.MB.231 and 184A1))
Test: radioligand binding; competition: 5 nM 125I-labelled TAA.62(T) on MDA.MB.231 monolayers with or without unlabelled peptide (cells preincubated with the growth factors), 2 h at 4 C, EBSS with 20 mM Hepes pH 7.4 and 1% BSA; specific binding as % of control

Substance | specific binding of 125I-TAA.62(T) (% of control)
epidermal growth factor (from UniProt P01133 971-1023) (ligand) | 102 % of control
insulin-like growth factor (from UniProt P05019 49-118) (ligand) | 97 % of control
transforming growth factor-alpha (from UniProt P01135 40-89) (ligand) | 98 % of control
transforming growth factor-beta (ligand) | 95 % of control
